Key:
[1] = test system: human pancreatic cancer cell line MIA-PaCa2; assay: Western blot/ELISA of caspase 3 cleavage, LC3 and p62; format: cell-based; conditions: 72 hours
Method: (§1) The human pancreatic cancer cell line MIA-PaCa2 was treated in vitro and in vivo with pegylated arginine deiminase (ADI-PEG) alone or in the presence of ChQ. Cell death was measured by propidium iodide (PI)-FACS to determine sub-G1 DNA content, and apoptosis was evaluated by Annexin V-PI flow cytometry. Cleavage of caspase 3 was evaluated by western blots and ELISA. Autophagy was measured by evaluating the expression levels of LC3 and […] p62 (p62) by western blots and ELISA.
(§2) In order to determine if ADI induces apoptosis and autophagy in a caspase dependent manner, cells were incubated with either ADI-PEG or a combination of ADI-PEG and ZVAD-fmk, a pan-caspase inhibitor.
(§3) The levels of p62, LC3B-I, and LC3B-II were measured by western blot analysis in order to examine autophagic flux.

[2] = test system: human pancreatic cancer cell line MIA-PaCa2; assay: Cell death by PI-FACS (sub-G1 DNA content) and Annexin V-PI flow cytometry; format: cell-based
Method: as §1, §2, §3
In order to examine whether ChQ alters the amount of apoptotic or non-apoptotic cell death when used in combination with ADI, cells were incubated with ADI-PEG alone or a combination of ADI-PEG and ChQ.

B1: ADI-PEG: ADI covalently modified with PEG (with or without a linking group) (protein, listed as Mycoplasma hominis)
chain: MSVFDSKFNGIHVYSEIGELETVLVHEPGREIDYITPARLDELLFSAILESHDARKEHQSFVKIMKDRGINVVELTDLVAETYDLASKAAKEEFIETFLEETVPVLTEANKEAVRAFLLSKPTHEMVEFMMSGITKYELGVESENELIVDPMPNLYFTRDPFASVGNGVTIHFMRYIVRRRETLFARFVFRNHPKLVKTPWYYDPAMKMSIEGGDVFIYNNETLVVGVSERTDLDTITLLAKNIKANKEVEFKRIVAINVPKWTNLMHLDTWLTMLDKNKFLYSPIANDVFKFWDYDLVNGGAEPQPQLNGLPLDKLLASIINKEPVLIPIGGAGATEMEIARETNFDGTNYLAIKPGLVIGYDRNEKTNAALKAAGITVLPFHGNQLSLGMGNARCMSMPLSRKDVKW
modifications: PEGylated
LC3B conjugation with PE ([1]; dose dependent): LC3B conjugation with PE
caspase cleavage ([1]; dose dependent): induces caspase cleavage
apoptosis as measured by caspase 3 cleavage ([1]; ADI-PEG 0.3 μg/mL, western blot): induction of apoptosis
Annexin V depolarization ([2]; 0.3 μg/mL, 72 hours, vs PBS): induced Annexin V depolarization
number of cells in sub-G0/G1 ([2]; ADI-PEG alone): increased the number of cells in sub-G0/G1
